Measured values from patent US20040097712A1 (Amgen, published 2004).

Key:
[1] = target: T1, IL-1R1 on human cells (primary human chondrocytes; human whole blood) (human, UniProt P14778 18-569); experiment: cell-based or functional assay
T1 sequence (looked up): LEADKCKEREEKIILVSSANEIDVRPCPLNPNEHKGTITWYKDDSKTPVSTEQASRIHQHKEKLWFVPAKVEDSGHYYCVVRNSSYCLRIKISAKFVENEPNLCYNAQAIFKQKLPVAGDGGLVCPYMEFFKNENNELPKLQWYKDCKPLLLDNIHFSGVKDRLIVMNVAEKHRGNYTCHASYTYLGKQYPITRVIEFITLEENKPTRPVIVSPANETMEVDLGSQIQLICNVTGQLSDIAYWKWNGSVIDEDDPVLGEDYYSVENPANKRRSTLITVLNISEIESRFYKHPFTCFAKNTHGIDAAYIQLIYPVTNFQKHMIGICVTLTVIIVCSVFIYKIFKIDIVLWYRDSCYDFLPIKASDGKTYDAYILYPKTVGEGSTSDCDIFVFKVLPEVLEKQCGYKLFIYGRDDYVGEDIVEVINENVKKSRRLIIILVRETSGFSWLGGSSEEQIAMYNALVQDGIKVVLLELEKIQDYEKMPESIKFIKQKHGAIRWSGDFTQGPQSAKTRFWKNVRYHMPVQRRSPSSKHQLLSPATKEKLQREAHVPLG

[2] = target: T1, IL-1R1 on human cells (primary human …); experiment: cell-based or functional assay; remark: listed apart in the source
[3] = target: T2, rat sIL-1R1 (1+2+3 domain) (rat, UniProt Q02955 20-338); experiment: ELISA, plates coated with the protein, anti-human Fc-HRP detection
T2 construct: extracellular domain
T2 sequence (looked up): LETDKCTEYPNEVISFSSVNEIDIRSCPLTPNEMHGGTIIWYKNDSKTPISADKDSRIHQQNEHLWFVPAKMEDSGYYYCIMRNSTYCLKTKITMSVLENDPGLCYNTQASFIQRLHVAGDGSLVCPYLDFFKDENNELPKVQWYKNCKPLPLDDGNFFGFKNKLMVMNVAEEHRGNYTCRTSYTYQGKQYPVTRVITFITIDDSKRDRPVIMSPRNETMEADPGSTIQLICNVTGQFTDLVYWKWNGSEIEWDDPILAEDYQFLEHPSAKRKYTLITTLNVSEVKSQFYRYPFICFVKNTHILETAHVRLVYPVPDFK
Text: (§1) The antibodies were subjected to a preliminary epitope sorting experiment. ELISA plates were coated with human sIL-1R1 (1+2+3 domain), truncated human sIL-1R1 (1+2 domain), rat sIL-1R1, human sIL-1R type II, and ovalbumin (negative control). Antibody binding was detected with a horseradish peroxidase-conjugated anti-Human Fc antibody (Pierce Chemical Co., Rockford, Ill.). A check mark (√) in Table 2 represents a positive result for binding; “X” represents a negative result.

[4] = target: T3, ovalbumin (negative control) (UniProt P01012 2-386); experiment: as above
T3 construct: also called OA
T3 sequence (looked up): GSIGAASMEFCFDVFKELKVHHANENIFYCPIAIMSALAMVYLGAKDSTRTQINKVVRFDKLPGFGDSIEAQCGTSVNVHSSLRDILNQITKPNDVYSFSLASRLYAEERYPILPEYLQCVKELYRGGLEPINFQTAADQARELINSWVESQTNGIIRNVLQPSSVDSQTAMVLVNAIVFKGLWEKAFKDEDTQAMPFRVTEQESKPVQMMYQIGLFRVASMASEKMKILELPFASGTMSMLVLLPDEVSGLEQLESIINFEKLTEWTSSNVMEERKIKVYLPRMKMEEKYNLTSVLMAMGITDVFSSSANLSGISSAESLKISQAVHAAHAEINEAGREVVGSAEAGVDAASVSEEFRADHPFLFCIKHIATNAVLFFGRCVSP
Text: as §1

[5] = target: T4, human sIL-1R type II (1+2+3 domain) (human, UniProt P27930 14-343); experiment: as above
T4 construct: extracellular domain; also called Hu sIL-1RII; human type II receptor
T4 sequence (looked up): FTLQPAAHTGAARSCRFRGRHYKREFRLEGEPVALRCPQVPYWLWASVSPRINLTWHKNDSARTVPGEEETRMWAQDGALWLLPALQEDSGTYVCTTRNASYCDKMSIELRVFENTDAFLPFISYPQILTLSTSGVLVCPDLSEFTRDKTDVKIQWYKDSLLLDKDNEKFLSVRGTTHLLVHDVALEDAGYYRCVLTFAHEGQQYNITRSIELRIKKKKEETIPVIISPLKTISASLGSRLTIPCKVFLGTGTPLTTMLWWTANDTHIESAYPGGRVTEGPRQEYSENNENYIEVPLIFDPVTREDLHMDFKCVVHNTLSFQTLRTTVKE
Text: as §1

[6] = target: T1, IL-1R1 on human cells (primary human …); experiment: cell-based or functional assay; remark: listed apart in the source

B1: 15C4 human anti-IL-1R1 monoclonal antibody (purified from hybridoma supernatant) (antibody, V domains shown)
VH: EVQLMQSGAEVKKPGESLKISCKGSGYSFSFHWIAWVRQMPGKGLEWMGIIHPGASDTRYSPSFQGQVTISADNSNSATYLQWSSLKASDTAMYFCARQRELDYFDYWGQGTLVTVSS
VL: EIVLTQSPDFQSVTPKEKVTITCRASQSIGSSLHWYQQKPDQSPKLLIKYASQSFSGVPSRFSGSGSGTDFTLTINSLEAEDAAAYYCHQSSSLPLTFGGGTKVEIK
notes: Human IgG kappa from HuMab mice
IC50, inhibition of IL-1β induced IL-6 production in primary human chondrocytes (Table 4A) [1]: 0.016 nM
IC50, inhibition of IL-1-induced IL-6 production in human whole blood, composite (pooled data) [2]: 0.126 nM
IC50, inhibition of IL-1-induced IL-6 production in human whole blood, donor 1047 [2]: 0.126 nM
IC50, inhibition of IL-1-induced IL-6 production in human whole blood, donor 1319 [2]: 0.111 nM
binding result [3]: no binding
binding result [4]: no binding
binding result [5]: no binding
IC50, inhibition of IL-1β induced IL-6 production in primary human chondrocytes (Table 4B) [6]: 0.007 nM
